The values that follow come from patent EP4640225A1 (dated 2025).

Assay in all cases: activation reporter or marker
The target in assay [1] is T1, KK-LC-1 peptide on HLA-C*14:02 (human).
T1 peptide: RFQRNTGEM

In assay [2] the target is T2, KK-LC-1 peptide on HLA-B*51:01 (human).
T2 peptide: RFQRNTGEM

Assay [3] deals with T3, KK-LC-1 peptide on HLA-B*15:01 (human).
T3 peptide: RFQRNTGEM

Assay [4] addresses T4, KK-LC-1 peptide on HLA-C*07:02 (human).
T4 peptide: RFQRNTGEM

In assay [5] the target is T5, KK-LC-1 peptide on HLA-A*24:02 (human).
T5 peptide: RFQRNTGEM

For assay [6], the target named is T6, KK-LC-1 peptide on HLA-A*26:03 (human).
T6 peptide: RFQRNTGEM

For assay [7], the target named is T7, KK-LC-1 peptide on HLA-B*15:01 (human).
T7 peptide: RQKRILVNL

B1: pt. 2-ex08TCR (TCR, V domains shown)
Valpha: GESVGLHLPTLSVQEGDNSIINCAYSNSASDYFIWYKQESGKGPQFIIDIRSNMDKRQGQRVTVLLNKTVKHLSLQIAATQPGDSAVYFCAEIPWGGSQGNLIFGKGTKLSVKP
Vbeta: DTGVSQDPRHKITKRGQNVTFRCDPISEHNRLYWYRQTLGQGPEFLTYFQNEAQLEKSRLLSDRFSAERPKGSFSTLEIQRTEQGDSAMYLCASSRDDREYFGEGSWLTVV
With B1, the binding result in assay [1] was “recognises”; in assay [2], “no recognition”; in assay [3], “no recognition”; in assay [4], “no recognition”; in assay [5], “no recognition”; in assay [6], “no recognition”.

B2: pt. 1-ex08TCR (TCR, V domains shown)
Valpha: KDQVFQPSTVASSEGAVVEIFCNHSVSNAYNFFWYLHFPGCAPRLLVKGSKPSQQGRYNMTYERFSSSLLILQVREADAAVYYCAVEDVPVNDYKLSFGAGTTVTVRA
Vbeta: DAGITQSPRHKVTETGTPVTLRCHQTENHRYMYWYRQDPGHGLRLIHYSYGVKDTDKGEVSDGYSVSRSKTEDFLLTLESATSSQTSVYFCAISAEGTYEQYFGPGTRLTVT
For the molecule B2, the binding result in assay [7] is “recognises”.

B3: pt. 2-ex09TCR (TCR, V domains shown)
Valpha: GQNIDQPTEMTATEGAIVQINCTYQTSGFNGLFWYQQHAGEAPTFLSYNVLDGLEEKGRFSSFLSRSKGYSYLLLKELQMKDSASYLCAVDDGGATNKLIFGTGTLLAVQP
Vbeta: ETGVTQSPTHLIKTRGQQVTLRCSSQSGHNTVSWYQQALGQGPQFIFQYYREEENGRGNFPPRFSGLQFPNYSSELNVNALELDDSALYLCASSTRDRGTYEQYFGPGTRLTVT
Regarding B3, the binding result in assay [7] is recorded as “recognises”.

B4: pt. 1-ex15TCR (TCR, V domains shown)
Valpha: AQKVTQAQTEISVVEKEDVTLDCVYETRDTTYYLFWYKQPPSGELVFLIRRNSFDEQNEISGRYSWNFQKSTSSFNFTITASQVVDSAVYFCALSDPEESGYALNFGKGTSLLVTP
Vbeta: DTGVSQDPRHKITKRGQNVTFRCDPISEHNRLYWYRQTLGQGPEFLTYFQNEAQLEKSRLLSDRFSAERPKGSFSTLEIQRTEQGDSAMYLCASSSNEKLFFGSGTQLSVL
Regarding B4, in assay [7], the binding result is reported as “recognises”.
